According to a protein production outcome set (Wang et al. 2014):

Experiment: label from the status in PepcDB records
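Further: failed if final PepcDB status was selected cloned or expressed and not failed if soluble or beyond.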

| Sequence | protein production |
| --- | --- |
| MSGPRAGFYRQELNKTVWEVPQRLQGLRPVGSGAYGSVCSAYDARLRQKVAVKKLSRPFQSLIHARRTYRELRLLKHLKHENVIGLLDVFTPATSIEDFSEVYLVTTLMGADLNNIVKCQAGAHQGARLALDEHVQFLVYQLLRGLKYIHSAGIIHRDLKPSNVAVNEDCELRILDFGLARQADEEMTGYVATRWYRAPEIMLNWMHYNQTVDIWSVGCIMAELLQGKALFPGSDYIDQLKRIMEVVGTPSPEVLAKISSEHARTYIQSLPPMPQKDLSSIFRGANPLAIDLLGRMLVLDSDQRVSAAEALAHAYFSQYHDPEDEPEAEPYDESVEAKERTLEEWKELTYQEVLSFKPPEPPKPPGSLEIEQ | failed |
| FLEVNYYSRVLGMNRVMNVLLPEESDHNPNWTNDSLKDLPVLYLLHGMSGNHFDWQRKSDIERLLRQTKLAVIMPAADLAWYTNTDYGMNYFDAISQELPRKVASLFPQISTKRKKHFVAGMSMGGYGAFKLAFSSSYFSYAASLSGTLISSLNYPGFLDMEKQAYWKGIFGDLDKFSGSKNDIFELAKRQSNTGIELPKLYAWVGQQDFFYGANEKAIPRLRKMGYDVSYETNPGDHEWYYWSKYIENILQWLPINYQAEKRLS | failed |
| MSYFYKHCLKFSLVGLLGLLSVQLDARSFVDGDLDIQKFSYEDSLLKKGDPNGVHKVQVRDYKGKMQEAEIHSEIRIALKPGVKKEVKKGKIYSAQINDGMCYAFRMLQTGDNTTGLDSKEFPKQSREKKGRVITLIGKGEVPYLILETDCQVGDIAKISLVGNFDGTGFLTEYKFKDAKPIY | failed |
| MNRVKDKRLWLSIVGITGLGLLSGLFSVNAREYYQALRLPSFAPPGWLFGPVWLVLYIFMGITFYFILVHPNKQQKKRMITLFILQFIANFFWTFFFFSLQNNLLSVIDISLLWLLLIIQQWDYLRYKLITRGWLMIPYILWVTFAAALNYSILFLN | not failed |
| MVDSYDDSLDGEKSKTQVKRELHALVDLGERLTTLKADVLAKLPLTDALRKALAEAPKHTANIARKRHILFIGKLMRDQDQEAILVLLDQLDASTRQYNERFHNLERWRDRLIAGDDADLEKFVIEYPDADRQQLRSLIRQAQHEVARNKPPATSRKIFKYIRELDELQRGLR | not failed |
| MSGSNSSNHLHEREGTSEESREQSHKHSGLFNPRLFLHSLSHKFSHTPFHKHSHVHPHEHSHGHSHTHGRVDPSIIATQKGLWAVKWSFIGLMVTAVLQIFIVIMSGSVALLADTIHNFGDASTAIPLAIAFTLARRKPSKRFSYGYGRVEDLAGVIIVFLILFSAAVAGYESVTRFLNPRPVEHLQAVALAAIIGCIGNEVVAQFRMKVGKEIGSAALIADGYHARMDGFTSLAVLVGAVGVWLGYPILDPLIGMLITIAILKIVLDSSKLVFTRLLDGVEPEVLDQVKAIAEGVEGVCEVTDLRVRWIGHRLHAEINASVDPSLSVEEGHEIANAVREKLLENFSYLSGTTIHVDPVTASGECCHCGSESPDKRLGRQKRVLNVYPG | failed |
| MNDSAPRRVRVRAPELIGKGGWLNTGDKQYTLADLRGRIVVLDFWTFCCINCLHVLDELRELEEKHRDTVVIIGVHSPKFVHEAEHQAVVDAVERYGVEHPVLDDPELATWKQYAVRAWPTLVVIDPEGYVVAQHAGEGHAHAIAALVAELEAEHEAKGTLRRGDGPYVAPEPEPTVLRFPGKALLLPSGNFLVSDTTRHQLVELAADGESVVRRIGSGIRGFADGPADAASFSEPQGMTLLDEDVVVVADTVNHALRRLDLATGEVTTLAGTGRQWWQGSPASGPAREVDLSSPWDVAVFGGRVWIAMAGGAPAVDVRPGGGDGRGRGGHDERGAGRRTGLEHHHHHH | not failed |
| MPMTIKRATWNNGPDLAFDINNKANAAIEKYGREAVINAALGTLLDDKGKIIALPSVYDRLDEMDRSHIASYAPIEGEKDYRKIVIDTLFGPYKPEGYISAIATPGGTGAIRSAIFSYLDEGDPLICHDYYWAPYRKICEEFGRNFKTFEFFTDDFAFNIDVYKEAIDEGIRDSDRIASLINSPGNNPTGYSLSDEEWDEVITFLKEKAEDKDKKITLIVDVAYLEFAGDGDQQRKFFEKFSNLPRNLFVVVAFSMSKSHTAYGLRSGAAVGISSSKEIIEEFEASLAHSARCNWSNGTHAAQNILIELERAENKKIYEQELVDLRNMLKSRADVFVTAAKENKLTMIPYFGGFFTFIPTDKAFDIVKDLEKENIFTIPSAKGIRVAICGVGEEKIPKLVQRLAFYTNKK | not failed |
| EQITHWIVVQQDTTEQQRVQQAMRTQRDRLQRMQGVAQTGGWEYDPKSDSFTGSNEFYRLIGLPQSTNFDLERAFQLYPPSVRGRVKTAAQRCLEDGSPFDMEVPLVSATGQHREVRVRGSAEREEG | failed |
| RSIRLPETIDLGALYLSMKDTEKGIKELNLEKDKKIFNHCFTGNCVIDWLVSNQSVRNRQEGLMIASSLLNEGYLQPAGDMSKSAVDGTAENPFLDNPDAFYYFPDSGFFCEEN | not failed |
| MKALSPVRGCYEAVCCLSERSLAIARGRGKGPAAEEPLSLLDDMNHCYSRLRELVPGVPRGTQLSQVEILQRVIDYILDLQVVLAEPAPGPPDGPHLPIQTAELAPELVISNDKRSFCH | failed |
| MGFIVFCLIAYFVISHLSNKKDVSGNKANSNCPYCNAAFYLTENGDFNCSNCGRLFKYRDGIVYRQDERLPIVVELACTLFTILCKADGVVTKDEVSITKELLEKNFGLEDKDMKMAIDILNKSKSKPYTKTIINDLNNIFNNYDFSKTDAEDYKELILRCAMIIAFCDDGEPSNNQNKILDDIVSIFNISATKYTNLLNYFRDNCIEKNKNDYYEILGVSEGASKEEIRAAFRKLSKLYHPDRYSSKDLPPEIIKEFEEKLAKIIEAYEALK | failed |
| MTDWIQNLMDSMGYLGILLLMVLENVFPPIPSELIMPSAGFAAARGDMSLGMVVLMGTLGSVIGTLPLYYIGRAFGEDKLVAWADKHGKWLTLSGKDIKKADAWFDRYGAGAVLFGRMVPGIRSLLSLPAGMSEMPLPKFLIYSAIGSALWSAALAYAGYALGENYDRVEQYVAPVSKVIVGLLVIGAAAWFIRRKREQGSRTGG | failed |
| MLASIISILRVFVLLFNTPLFIFAFLPVGFLGYFILQAYAKNPLFPKLWLVLASLFFYAFWNVKYLPLLVGSIVFNYFVALKIHQTQPNAYKRLWLILGLIANVSLLGFFKYTDFFLTNFNLIWKSHFETLHLILPLAISFFTLQQIAYLMDTYKQNQIMQPKMRERVSENAPILLNPPTSFFSLSHFLDYALFVSFFPQLIAGPIVHHSEMMPQFKDKNNQYLNYRNIALGLFIFSIGLFKKVVIADNTAHFADFGFDKATSLSFIQAWMTSLSYSFQLYFDFSGYCDMAIGIGLFFNIKLPINFNSPYKALNIQDFWRRWHITLSRFLKEYLYIPLGGNRVKELIVYRNLILVFLIGGFWHGAGWTFIIWGLLHGIALSVHRAYSHATRKFHFTMPKILAWLITFNFINLAWVFFRAKNLESALKVLKGMVGLNGVSLCHLSKEASEFLNRVNDNMIMHTIMYASPTFKMCVLMIIISFCLKNSSHLYQSNQMDWIKTTSACLLLSIGFLFIFASSQSVFLYFNF | failed |
| MKVVVQIKDFDKVPQALRSVINLYNDIKDAEIEVVLHQSAIKALLKDSDTRSIIEDLIKKNILIVGCENSIRSQNLSHDQLIPGIKIVTSGVGEIVRKQSEGWIYLAL | not failed |
| MLELDGSGAEPLRDGDPRWIGPIPLIGRLGSGGMGRVYLGVHEGRYAAVKQLLPSVVAEDEDFLRRFGHELDNLARLPGEATAPLLAGDREARPPWFATAYVPGLTLTEALEVHGGPLPAGALWLLLREAAKGLAAVHALDMVHRDLKPSNVMLTLEGLTLIDFGVARAAEQSRLTRTGMVVGTPAYMSPEQASGRRASSGAVDVFALGSVLAYAASGRPPFGDESGHAVLYRIVHEEPDLGPLRELDPELADVVASCLDKDHEGRPTAAELLETAERHGPYEPPLWPEALTERLTERAAFVTKLPERADLPEPEPEPERDPGPGPGSAVLGRRDPGRSDHRRRHRVLFAVVPVVVAAGATLAVQLLPYTFAPGDRADASPSSSAPVSSAPAASPAGPGKASRTATPDQDRSASPSRSPGEQGDRRGDADGGGGAAGGSQGDADAGGAGSGSGSGSGSAGDGGAGAGSGAGSGDGSGSDSGSGSGADSGSGAGSGSGSGSGSGSGDGGASGSGVFTLKNAKNGRCLTTAHADAPYDGDCTGDAATWTFRSRPDGTVWIINGLLGRCIYTAAIGHPVFSFPCGRTTGQEWRVGSGGTLKNAATGGCVTVSAMSGTGVRNEACEQSAAQRWTRS | failed |
| MWVYRLKGTLEALDPILPGLFDGGARGLWEREGEVWAFFPAPVDLPYEGVWEEVGDEDWLEAWRRDLKPALAPPFVVLAPWHTWEGAEIPLVIEPGMAFGTGHHETTRLALKALARHLRPGDKVLDLGTGSGVLAIAAEKLGGKALGVDIDPMVLPQAEANAKRNGVRPRFLEGSLEAALPFGPFDLLVANLYAELHAALAPRYREALVPGGRALLTGILKDRAPLVREAMAGAGFRPLEEAAEGEWVLLAYGR | not failed |
| MRLITNLLIIAILFSVPHVSIARIPEVVLSKKSAVVSIYVEDKQKIVAGGSGFIIDQNGIIVTNAHVIEPWNKSTTGILYVKKSDGTFLEPTEVIAADAVKDVALVRVKEQNLPFIKLTSNITPTQGDDVVVIGNPLGLETTVTDGIISAIRGEDGFLQISAPISQGSSGSPVLNSKGEAIGVATSIMAGGQNLNFAIPASYVTNLPTQEKAPPVKGLKKRAESPSGFETVTPEDIERDVVQIPEGAVHKGKVLFATDSGGYTYIRIEENGAPLWVAVTQTTISIGDIIEFPDSPPMTGFNSKSMNMTFDKITFAAGIRIVQRGNVEFKSPEEKHLYYAEQYSSMNNTPAAIEEISKAIELNPKKAEYYGKRANYYLQRRMYADSKSDEYQQIVASNRESCRNAVDDLNKAIAINPGNDVFYATQARIFTDSLFCDYANADKAIKLYETAIQLNPKKADYYVEKGWQHKIKNDFSKVLDCAKKALSISPNNEDAHYLYGSYYEENNKYDKALEYYTKGLSVSDNVTFGYFYIDGVMEKTKKYDDAVRIYTDLIKQHPKRLIFYNGRAEYYAKLKNYKKAIADYTTCIKLNPNSEYNYNLRANCYYEDGKKSEALTDYRTACDMKHAESCEMIPIVFADIKRGANWVPVAASSDVNYYYDKKGYTKNKNGVAVAWIRGEITDKEEYIKDIDISEYEKEKYKNVSHVMSRFEVDCPNQKLRVPISLIYAENGNVIRSYEDEKTKYSNIIPNSIGASIHENLCKGAPAKKIGKKK | failed |
| MLDKVIYSLLRTQDPGLAQELYFRLQAKEQSFAEVAQKYSQGPESQTGGLVGPVEQSSLHPAMVQLLSSCQPGQISPPTRITEWYVIVRVEKFIPAQLEHHHHHH | not failed |
| MSGIIATYLIHDDSHNLEKKAEQIALGLTIGSWTHLPHLLQEQLKQHKGNVIHVEELAEHEHTNSYLRKKVKRGIIKIEYPLLNFSPDLPAILTTTFGKLSLDGEVKLIDLTFSDELKKHFPGPKFGIDGIRNLLQVHDRPLLMSIFKGMIGRNIGYLKTQLRDQAIGGVDIVKDDEILFENALTPLTKRIVSGKEVLQSVYETYGHKTLYAVNLTGRTFDLKENAKRAVQAGADILLFNVFAYGLDVLQSLAEDDEIPVPIMAHPAVSGAYSASKLYGVSSPLLLGKLLRYAGADFSLFPSPYGSVALEKEEALAISKYLTEDDASFKKSFSVPSAGIHPGFVPFIVRDFGKDVVINAGGGIHGHPNGAQGGGKAFRTAIDATLQNKPLHEVDDINLHSALQIWGNPSYEVKL | not failed |
| MVSVSVVIATLKPRDEIEAIQCLEDQTFDDFEVIVCDKSPVTRARNEGIRQSSSDKIVFLDDDSRPQPGYLEKANDVLETEAAYAGRTIHPVDDVFARHFTAHYDWGGDPCYVDHFWGCNMGVHRDVFKTVGGWDEEMGWGHEEKELARRVRSEFDIRYDPELVVDHPYASSITDYWKKQYKLETKSPYYWSKCNVSRADQLKNIFCETFDPLNYVRITPVATMIEAGSTVAKTAGRLRGFLDHTHHEEGRGGVPDIDRPSQSPERSGLEHHHHHH | failed |
